In this experiment the target is β-casein. Conditions: scale: % of the protease activity of natural Hin47 protein.

For the substance Hin47 Ser-197->alanine analog (enzyme), the Protease activity (digestion of β-casein, SDS-PAGE) is < 10.
